Source: patent US20120276102A1 (Pfizer, published 2012)

Tests used:
[1] = biological target: T1, human IL-21R extracellular domain His-Flag fusion protein (human, UniProt Q9HBE5 20-232); assay: SPR, Ab captured on anti-human IgG, replicate experiment; Table 7B, human IL-21R-His/FLAG
T1 construct: Biotinylated in the HTRF screen; also called hIL-21R-H/F; human IL-21R-H/F
Method: The kinetics of binding of anti-IL-21R antibodies to human and murine IL-21R-H/F was tested on a BIACORE™ surface plasmon resonance instrument. Anti-human IgG antibodies (Invitrogen Corporation) were immobilized onto a research-grade carboxy-methyl-dextran chip (CM5) using standard amine coupling. The surface was activated with EDC/NHS for 7 min at a flow of 20 μl/min. The first flow cell was used as a reference surface to correct for bulk refractive index, matrix effects, and nonspecific binding. The anti-human-Fc antibody was diluted to 20 μg/ml in 10 mM sodium acetate buffer (pH 5.0), and 2950-3405 resonance units (RU) were captured on each of the four flow cells. Remaining activated groups were blocked with 1.0 M ethanolamine-HCl (pH 8.5).
Anti-IL-21R antibodies were diluted to 0.1-0.2 μg/ml in HBS/EP buffer supplemented with 0.2% bovine serum albumin and loaded onto the BIACORE™ chip. Following a brief washing period, solutions of 0-100 nM human IL-21R-H/F or 10-500 nM murine IL-21R-H/F were injected over the chip at a flow rate of 50 μl/min. The association phase was run for 3 min for human and murine IL-21R kinetics, and the dissociation phase was monitored for 15 min for hIL-21R and for 5 min for mIL-21R, followed by two 10 μl injections and one 30 μl injection of glycine (pH 1.5), to regenerate a fully active capturing surface. […]

[2] = biological target: human IL-21R expressed on cells (human, UniProt Q9HBE5 20-538); assay: cell-based or functional assay
human IL-21R expressed on cells, sequence (Q9HBE5 20-538 limits assumed): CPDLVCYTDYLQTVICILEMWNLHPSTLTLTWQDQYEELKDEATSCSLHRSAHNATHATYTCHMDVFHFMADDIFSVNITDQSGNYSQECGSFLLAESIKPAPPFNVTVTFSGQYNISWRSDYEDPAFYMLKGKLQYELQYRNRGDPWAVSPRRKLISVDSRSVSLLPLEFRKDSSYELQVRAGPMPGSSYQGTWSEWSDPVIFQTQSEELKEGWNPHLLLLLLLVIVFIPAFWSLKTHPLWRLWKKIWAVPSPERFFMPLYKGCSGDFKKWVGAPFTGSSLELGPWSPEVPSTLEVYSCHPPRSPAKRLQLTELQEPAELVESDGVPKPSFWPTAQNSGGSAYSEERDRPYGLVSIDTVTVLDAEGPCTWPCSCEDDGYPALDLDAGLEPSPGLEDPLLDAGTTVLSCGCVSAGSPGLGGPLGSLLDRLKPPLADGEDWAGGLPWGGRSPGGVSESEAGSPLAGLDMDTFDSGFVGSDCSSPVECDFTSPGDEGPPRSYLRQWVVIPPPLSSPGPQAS

human IL-13-His/FLAG = biological target: T2, human IL-13-His/FLAG (human, UniProt P35225 35-146, limits assumed); assay: SPR, Ab captured
T2 construct: Unrelated His/FLAG-tagged control; also called human IL-13-H/F
T2 sequence (P35225 35-146 limits assumed): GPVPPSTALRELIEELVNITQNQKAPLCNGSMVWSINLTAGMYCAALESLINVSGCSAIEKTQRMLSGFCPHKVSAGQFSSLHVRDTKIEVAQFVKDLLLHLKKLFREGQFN
Method: (§1) The specificity of binding of a subset of transiently expressed anti-IL-21R binding proteins (here antibodies) was tested on a BIACORE™ 2000 surface plasmon resonance instrument. Anti-human-IgG, anti-murine immunoglobulin antibodies, and murine IL-21R-H/F were immobilized onto a research-grade carboxymethyl-dextran chip (CM5) using standard amine coupling. The sensor chip surface was activated with EDC/NHS for 7 min at a flow rate of 20 μl/min. The first flow cell was used as reference surface to correct for bulk refractive index, matrix effects, and nonspecific binding. […] Remaining activated groups were blocked with 1.0 M ethanolamine (pH 8.0). The molecular weights of the anti-human IgG and the anti-murine IgG were both 150 kD, and the molecular weight of the IL-21R monomer was 27 kD.
(§2) Conditioned media containing anti-IL-21R antibodies and antibody controls (murine anti-human IL-2Rβ and murine anti-human IL-4R(R&D Systems, Minneapolis, Minn.); human anti-human IL-13 (Wyeth, Cambridge, Mass.)) were diluted in HBS/EP buffer supplemented with 0.2% bovine serum and injected onto all four flow cells of the BIACORE™ chip, capturing 500-700 (RU) of antibody on the species-appropriate capture antibody. Following a 5 sec washing period, 50 nM solutions of a positive control protein (murine IL-21R-H/F), two human proteins related to IL-21R (human IL-2Rβ and human sIL-4R(R&D Systems)), or an unrelated His/FLAG-tagged protein (human IL-13-H/F) were injected over the captured antibodies on the chip. The association and dissociation phases were monitored for 120 and 180 sec, respectively, followed by two 5 μl injections of glycine (pH 1.5) to regenerate a fully active capturing surface. All binding experiments were done at 25° C. in HBS/EP buffer. Blank and buffer effects were subtracted for each sensorgram using double referencing.

human IL-2Rβ = biological target: T3, human IL-2Rβ (human, UniProt P14784 27-239); assay: SPR, Ab captured
T3 sequence (looked up): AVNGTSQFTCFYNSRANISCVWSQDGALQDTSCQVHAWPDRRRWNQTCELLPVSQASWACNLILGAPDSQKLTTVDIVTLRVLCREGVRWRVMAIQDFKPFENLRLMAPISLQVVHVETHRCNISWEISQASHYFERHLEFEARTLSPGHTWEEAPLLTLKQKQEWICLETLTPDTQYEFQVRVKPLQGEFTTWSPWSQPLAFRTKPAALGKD
Method: as §1, §2

human soluble IL-4R = biological target: T4, human soluble IL-4R (human, UniProt P24394 26-232, limits assumed); assay: SPR, Ab captured
T4 construct: also called human sIL-4R
Method: as §1, §2

T1 sequence (Q9HBE5 20-232): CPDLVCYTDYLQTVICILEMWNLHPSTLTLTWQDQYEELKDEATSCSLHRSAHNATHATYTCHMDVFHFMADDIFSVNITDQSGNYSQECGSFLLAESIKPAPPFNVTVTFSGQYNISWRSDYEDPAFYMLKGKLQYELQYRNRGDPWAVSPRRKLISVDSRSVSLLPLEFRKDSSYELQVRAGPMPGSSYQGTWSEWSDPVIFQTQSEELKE

B1: AbQ (antibody, human IgG1, V domains shown)
VH: QVQLQESGPGLVKPSETLSLTCAVSGYSISSGYYWGWIRQPPGKGLEWIGSISHTGNTYYNPPLKSRVTISVDTSKNQFSLKLSSVTAADTAVYYCARFMGFGRPEYWGQGTLVTVSS
VL: SSELTQDPAVSVALGQTVRITCQGDSLRTYYASWYQQKPGQAPVLVIYGKHKRPSGIPDRFSGSSSGNTASLTITGAQAEDEADYYCVARSVVGNPHVLFGGGTQLTVL
notes: CDR3 graft, residue limits derived as for m29; also called VH3/VL2; VH3DM/VL2
- kon [1]: 439000 M⁻¹ s⁻¹

B2: AbS (antibody, V domains shown)
VH: QVQLQESGPGLVKPSETLSLTCAVSGYSISSGYYWGWIRQPPGKGLEWIGSISHTGNTYYNPPLKSRVTISVDTSKNQFSLKLSSVTAADTAVYYCARGGGISRPEYWGQGTLVTVSS
VL: SSELTQDPAVSVALGQTVRITCQGDSLRTYYASWYQQKPGQAPVLVIYGKHKRPSGIPDRFSGSSSGNTASLTITGAQAEDEADYYCMSRSIWGNPHVLFGGGTQLTVL
notes: CDR3 graft, residue limits derived as for m29; also called VHP/VL6; VHPTM/VL6
- IC50, IL-21-induced CD19 expression in human whole blood [2]: 7 ng/mL
- IC50, IL-21-induced GZMB expression in human whole blood [2]: < 3 ng/mL
- IC50, IL-21-induced IFNG expression in human whole blood [2]: 15 ng/mL
- IC50, IL-21-induced IL2Rα expression in human whole blood [2]: 2 ng/mL
- IC50, IL-21-induced IL6 expression in human whole blood [2]: 5 ng/mL
- IC50, IL-21-induced PRF1 expression in human whole blood [2]: 7 ng/mL

B3: parental 18A5 antibody (antibody, V domains shown)
VH: QVQLQESGPGLVKTSETLSLTCAVSGYSISSGYYWGWIRQPPGKGLEWIGSISHTGNTYYNPPLKSRVTISVDTSKNQFSLKLSSVTAADTAVYYCARGGGISRPEYWGKGTLVTVSS
VL: SSELTQDPPVSVALGQTVTLTCQGDSLRTYYASWYQQKSGQAPILLLYGKHKRPSGIPDRFSGSTSGDTASLTITGAQAEDEADYYCNSRDSSGNPHVLFGGGTQLTVL
notes: also called 18A5 IgG
- binding result (human IL-13-His/FLAG): no binding (tested: 50 nM)
- binding result (human IL-2Rβ): no binding (tested: 50 nM)
- binding result (human soluble IL-4R): no binding (tested: 50 nM)
